# Laboratory results from patent publication US20090208490A1 (AbbVie / Abbott, published 2009).
# B1: αD11 anti-NGF antibody (antibody, V domains shown)
# VH: QVQLKESGPGLVQPSQTLSLTCTVSGFSLTNNNVNWVRQATGRGLEWMGGVWAGGATDYNSALKSRLTITRDTSKSQVFLKMHSLQSEDTATYYCARDGGYSSSTLYAMDAWGQGTTVTVSA
# VL: DIQMTQSPASLSASLGETVTIECRASEDIYNALAWYQQKPGKSPQLLIYNTDTLHTGVPSRFSGSGSGTQYSLKINSLQSEDVASYFCQHYFHYPRTFGGGTKLELK
# notes: Rat monoclonal antibody purified from hybridoma supernatant; the constant regions are not; also called alphaD11; aD11
# B2: Hu-αD11 (humanized variant of the αD11 anti-NGF antibody) (antibody, V domains shown)
# VH: EVQLVESGGGLVQPGGSLRLSCAASGFSLTNNNVNWVRQAPGKGLEWVGGVWAGGATDYNSALKSRFTISRDNSKNTAYLQMNSLRAEDTAVYYCARDGGYSSSTLYAMDAWGQGTLVTVSS
# VL: DIQMTQSPSSLSASVGDRVTITCRASEDIYNALAWYQQKPGKAPKLLIYNTDTLHTGVPSRFSGSGSGTDYTLTISSLQPEDFATYFCQHYFHYPRTFGQGTKVEIK
# notes: also called Hu-alphaD11; Hu-aD11
# Assays:
# [1] = molecular target: T1, mouse NGF (m-NGF, Alomone) (mouse, UniProt P01139 122-241); assay: SPR (BIAcore 2000), antibody amine-coupled on CM5 chip, m-NGF injected
# T1 construct: mature; Commercial m-NGF
# T1 sequence (P01139 122-241 limits assumed): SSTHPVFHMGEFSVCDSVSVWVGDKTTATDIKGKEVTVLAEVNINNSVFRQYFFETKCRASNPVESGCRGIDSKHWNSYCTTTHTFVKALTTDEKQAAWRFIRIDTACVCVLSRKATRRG
# Procedure: For m-NGF binding, the immobilization of the antibody was of 3000 resonance units (RU) in the experiment of panel A and of 6000 RU in the experiment of panel B. The injected concentrations of the m-NGF are indicated on top of each curve. From a complete analysis of the data, the affinity parameters were evaluated, and resulted to be the following.
# (§1) Experiments were performed on CM5 chips with amine coupling, using a BIAcore 2000 machine. Coupling was performed with a specific kit purchased at BIAcore and the coupling reaction was carried out according to manufacturer's instructions.
# (§2) Anti-NGF antibodies were immobilized on chip, while mouse NGF (m-NGF, Alomone) or recombinant mouse proNGF (rm-proNGF) were injected at decreasing concentrations to obtain binding curves.
# [2] = molecular target: T2, recombinant mouse proNGF (rm-proNGF) (mouse, UniProt P01139 19-241); assay: SPR (BIAcore 2000), antibody amine-coupled on CM5 chip (3000 RU), rm-proNGF injected, kinetic analysis
# T2 sequence (P01139 19-241): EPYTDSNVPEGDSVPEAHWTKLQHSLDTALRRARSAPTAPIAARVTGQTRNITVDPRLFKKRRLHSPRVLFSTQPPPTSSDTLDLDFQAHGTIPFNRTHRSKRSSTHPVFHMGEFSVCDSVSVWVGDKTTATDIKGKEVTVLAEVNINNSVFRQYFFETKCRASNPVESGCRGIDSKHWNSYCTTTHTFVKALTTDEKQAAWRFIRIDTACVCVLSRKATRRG
# Procedure: The injected concentrations of the rm-proNGF are indicated on top of each curve.
# as §1, §2
# [3] = molecular target: T2, recombinant mouse proNGF (rm-proNGF); assay: SPR (BIAcore), antibody immobilized
binder,measurement,setting,value
B1,Kd,[1],0.0028 nM
same,Ka,[2],1.2e+09 M⁻¹
same,Kd,[2],1.9 nM
B2,binding result,[3],binds
